From patent EP4810516A1 (Shanghai Shengdi Pharmaceutical Co., Ltd., dated 2026)

T1: recombinant monkey (Macaca mulatta) γ9δ2 TCR protein (monkey (Macaca mulatta); called …)
T1 construct: also called Monkey γ9δ2 TCR; Cynomolgus monkey γ9δ2
T1 V domain 1: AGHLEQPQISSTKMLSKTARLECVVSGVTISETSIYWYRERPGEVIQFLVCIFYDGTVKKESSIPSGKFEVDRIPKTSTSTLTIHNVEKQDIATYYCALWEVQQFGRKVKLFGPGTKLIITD
T1 V domain 2: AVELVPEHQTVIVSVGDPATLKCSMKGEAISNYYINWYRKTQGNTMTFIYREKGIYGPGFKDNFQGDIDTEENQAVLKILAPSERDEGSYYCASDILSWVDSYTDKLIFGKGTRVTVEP

T2: recombinant human γ8δ2 TCR protein (human)
T2 chain 1: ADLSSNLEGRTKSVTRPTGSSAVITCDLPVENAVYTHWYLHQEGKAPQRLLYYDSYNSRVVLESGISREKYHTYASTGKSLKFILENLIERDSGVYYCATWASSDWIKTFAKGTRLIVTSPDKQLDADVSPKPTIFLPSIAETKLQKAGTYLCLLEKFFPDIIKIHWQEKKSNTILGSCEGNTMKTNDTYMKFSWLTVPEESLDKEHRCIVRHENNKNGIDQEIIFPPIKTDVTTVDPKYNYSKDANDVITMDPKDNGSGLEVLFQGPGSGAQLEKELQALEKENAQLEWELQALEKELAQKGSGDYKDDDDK
T2 chain 2: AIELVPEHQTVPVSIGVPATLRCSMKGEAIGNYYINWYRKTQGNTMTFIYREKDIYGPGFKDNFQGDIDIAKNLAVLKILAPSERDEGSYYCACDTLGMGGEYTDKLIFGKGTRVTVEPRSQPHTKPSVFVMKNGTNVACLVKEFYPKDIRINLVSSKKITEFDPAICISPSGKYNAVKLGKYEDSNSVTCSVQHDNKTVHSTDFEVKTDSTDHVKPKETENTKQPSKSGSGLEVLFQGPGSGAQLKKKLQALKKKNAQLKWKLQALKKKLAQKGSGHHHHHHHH


Columns and labels:
[1] = target: T3, human GPC3 naturally expressed on tumor cells (human, UniProt P51654 25-580); experiment: cell-based or functional assay
[2] = target: T3, human GPC3 naturally expressed on tumor …; experiment: FACS on HepG2 cells (natural human GPC3), anti-human Fc secondary
[3] = target: T4, human GPC3 (Sino Biological, Cat#10088-H08H) (human, UniProt P51654 25-559); experiment: SPR (Biacore 8K), antibody captured on Protein A chip, antigen as analyte
T4 construct: Bought protein; also called human GPC3 protein

[4] = target: T5, cynomolgus monkey GPC3 (Acrobiosystems, Cat#GP3-C5225) (cynomolgus monkey, UniProt A0A2K5VK50 24-558); experiment: as above
T5 construct: Bought protein

[5] = target: T1, recombinant monkey (Macaca mulatta) …; experiment: as above
[6] = target: T3, human GPC3 naturally expressed on tumor …; experiment: cell-based or functional assay; remark: listed apart in the source
[7] = target: T2, recombinant human γ8δ2 TCR protein; experiment: ELISA, plate coated with 1 µg/mL recombinant TCR protein
[8] = target: T2, recombinant human γ8δ2 TCR protein; experiment: ELISA, plate coated with 1 µg/mL recombinant TCR protein, antibody at 30 nM

T3 sequence (P51654 25-580, form in doubt): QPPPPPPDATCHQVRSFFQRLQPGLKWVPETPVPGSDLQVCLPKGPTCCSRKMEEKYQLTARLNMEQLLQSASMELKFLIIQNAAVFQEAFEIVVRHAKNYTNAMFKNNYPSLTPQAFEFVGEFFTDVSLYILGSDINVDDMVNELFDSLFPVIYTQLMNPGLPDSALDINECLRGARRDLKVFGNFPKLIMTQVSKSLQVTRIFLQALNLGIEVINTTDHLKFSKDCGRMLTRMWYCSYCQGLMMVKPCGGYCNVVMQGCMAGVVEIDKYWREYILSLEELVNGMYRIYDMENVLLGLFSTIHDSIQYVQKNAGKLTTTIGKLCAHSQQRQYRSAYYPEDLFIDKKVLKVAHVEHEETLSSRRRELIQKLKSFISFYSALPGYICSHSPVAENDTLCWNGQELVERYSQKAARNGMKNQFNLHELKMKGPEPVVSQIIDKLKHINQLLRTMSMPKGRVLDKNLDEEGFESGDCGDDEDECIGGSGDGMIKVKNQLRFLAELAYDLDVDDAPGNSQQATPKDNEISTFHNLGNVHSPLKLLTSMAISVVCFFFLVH
T4 sequence (P51654 25-559 limits assumed): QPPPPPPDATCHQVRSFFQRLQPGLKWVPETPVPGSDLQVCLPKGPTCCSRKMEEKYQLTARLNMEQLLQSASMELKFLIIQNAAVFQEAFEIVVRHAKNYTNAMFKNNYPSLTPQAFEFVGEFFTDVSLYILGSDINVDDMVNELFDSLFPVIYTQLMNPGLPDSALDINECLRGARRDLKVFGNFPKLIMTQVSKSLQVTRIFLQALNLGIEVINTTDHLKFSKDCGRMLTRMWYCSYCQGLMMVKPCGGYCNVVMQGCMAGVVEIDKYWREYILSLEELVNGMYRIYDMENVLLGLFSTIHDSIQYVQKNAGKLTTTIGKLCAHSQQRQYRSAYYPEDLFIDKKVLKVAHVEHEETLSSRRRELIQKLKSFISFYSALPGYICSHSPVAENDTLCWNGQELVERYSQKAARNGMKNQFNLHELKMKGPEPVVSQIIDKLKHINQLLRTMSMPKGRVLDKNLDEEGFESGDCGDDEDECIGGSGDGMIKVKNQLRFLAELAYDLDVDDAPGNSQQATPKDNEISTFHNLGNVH

EC50 [2] [nM]	Kd [3] [nM]	Kd [4] [nM]	Kd [5] [nM]	binding result [7]	absorbance at 450 nm [8] [absorbance at 450 nm]	Binder	γδT killing of HepG2, EC50 (LDH assay) [1] [nM]	γδT killing of HepG2, Emax (LDH assay) [1] [%]	γδT killing of Huh-7, EC50 (LDH assay) [1] [nM]	γδT killing of Huh-7, Emax (LDH assay) [1] [%]	γδT killing of MKN-45, EC50 (LDH assay) [1] [nM]	γδT killing of MKN-45, Emax (LDH assay) [1] [%]	Killing activity against HepG2, EC50, γδ T cells of donor #SC12004 (LDH assay) [6] [nM]	Killing activity against HepG2, EC50, γδ T cells of donor #SC12392 (LDH assay) [6] [nM]	Killing activity against HepG2, EC50, γδ T cells of donor #XC11053 (LDH assay) [6] [nM]	Killing activity against HepG2, EC50, γδ T cells of donor #XC11061 (LDH assay) [6] [nM]
5.17	1.74	1.47	42.4	–	–	SDP01696 (bispecific antibody, human IgG1, kappa, also called anti-GPC3/γδTCR bispecific antibody (1+1, with SDP01315H2L2)) heavy 1: not shown light 1: DIQMTQSPSSVSASVGDRVTITCKASQNVGTNVAWYQQKPGKAPKALIYSASYRYSGVPSRFSGSGSGTDFTLTISSLQPEDFATYYCQQYNSFPLTFGQGTKLEIKGGGGSGIPPKIECLPIDISIDEGKVLTVASAFTGEPTPEVTWSTGGRKIHSQEQGRFHIENTDDSTTLTIKDVQKQDGGLYTLTLRNEFGSDSATVNIHIRSI heavy 2: QVQLVQSGAEVKKPGASVKVSCKASGYTFTDYEMHWVRQAPGQGLEWMGALDPKTGDTAYSQKFKGRVTLTADKSTSTAYMELSSLTSEDTAVYYCTRFYSYTYWGQGTLVTVSSASTKGPSVFPLAPSSKSTSGGTAALGCLVKDYFPEPVTVSWNSGALTSGVHTFPAVLQSSGLYSLSSVVTVPSSSLGTQTYICNVNHKPSNTKVDKKVEPKSCDKTHTCPPCPAPEFEGGPSVFLFPPKPKDTLMISRTPEVTCVVVDVSHEDPEVKFNWYVDGVEVHNAKTKPREEQYNSTYRVVSVLTVLHQDWLNGKEYKCKVSNKALPAPIEKTISKAKGQPREPQVCTLPPSREEMTKNQVSLSCAVKGFYPSDIAVEWESNGQPENNYKTTPPVLDSDGSFFLVSKLTVDKSRWQQGNVFSCSVMHEALHNHYTQKSLSLSPGK light 2: DVVMTQSPLSLPVTPGEPASISCRSSQSLVHSNRNTYLHWYLQKPGQSPQLLIYKVSNRFSGVPDRFSGSGSGTDFTLKISRVEAEDVGVYYCSQNTHVPPTFGQGTKLEIKRTVAAPSVFIFPPSDEQLKSGTASVVCLLNNFYPREAKVQWKVDNALQSGNSQESVTEQDSKDSTYSLSSTLTLSKADYEKHKVYACEVTHQGLSSPVTKSFNRGEC	0.06	70.1	0.21	50.9	0.024	11	–	–	–	–
4.85	1.65	1.47	68.8	–	–	SDP01716 (bispecific antibody, human IgG1, kappa, Knob-into-hole IgG1 Fc with L234F/L235E; also called anti-GPC3/γδTCR bispecific antibody (1+1, with SDP01346H4)) heavy 1: not shown heavy 2: QVQLVQSGAEVKKPGASVKVSCKASGYTFTDYEMHWVRQAPGQGLEWMGALDPKTGDTAYSQKFKGRVTLTADKSTSTAYMELSSLTSEDTAVYYCTRFYSYTYWGQGTLVTVSSASTKGPSVFPLAPSSKSTSGGTAALGCLVKDYFPEPVTVSWNSGALTSGVHTFPAVLQSSGLYSLSSVVTVPSSSLGTQTYICNVNHKPSNTKVDKKVEPKSCDKTHTCPPCPAPEFEGGPSVFLFPPKPKDTLMISRTPEVTCVVVDVSHEDPEVKFNWYVDGVEVHNAKTKPREEQYNSTYRVVSVLTVLHQDWLNGKEYKCKVSNKALPAPIEKTISKAKGQPREPQVCTLPPSREEMTKNQVSLSCAVKGFYPSDIAVEWESNGQPENNYKTTPPVLDSDGSFFLVSKLTVD light: DVVMTQSPLSLPVTPGEPASISCRSSQSLVHSNRNTYLHWYLQKPGQSPQLLIYKVSNRFSGVPDRFSGSGSGTDFTLKISRVEAEDVGVYYCSQNTHVPPTFGQGTKLEIKRTVAAPSVFIFPPSDEQLKSGTASVVCLLNNFYPREAKVQWKVDNALQSGNSQESVTEQDSKDSTYSLSSTLTLSKADYEKHKVYACEVTHQGLSSPVTKSFNRGEC	0.01	70.3	0.06	93.8	0.004	10.3	0.038	0.033	0.017	0.054
2.47	1.84	1.63	40.6	–	–	SDP01704 (bispecific antibody, human IgG1, kappa, Bivalent for GPC3; also called anti-GPC3/γδTCR bispecific antibody (2+1, with SDP01315H2L2)) heavy 1: not shown light 1: DIQMTQSPSSVSASVGDRVTITCKASQNVGTNVAWYQQKPGKAPKALIYSASYRYSGVPSRFSGSGSGTDFTLTISSLQPEDFATYYCQQYNSFPLTFGQGTKLEIKGGGGSGIPPKIECLPIDISIDEGKVLTVASAFTGEPTPEVTWSTGGRKIHSQEQGRFHIENTDDSTTLTIKDVQKQDGGLYTLTLRNEFGSDSATVNIHIRSI heavy 2: QVQLVQSGAEVKKPGASVKVSCKASGYTFTDYEMHWVRQAPGQGLEWMGALDPKTGDTAYSQKFKGRVTLTADKSTSTAYMELSSLTSEDTAVYYCTRFYSYTYWGQGTLVTVSSASTKGPSVFPLAPSSKSTSGGTAALGCLVKDYFPEPVTVSWNSGALTSGVHTFPAVLQSSGLYSLSSVVTVPSSSLGTQTYICNVNHKPSNTKVDKKVEPKSCDGGGGSGGGGSQVQLVQSGAEVKKPGASVKVSCKASGYTFTDYEMHWVRQAPGQGLEWMGALDPKTGDTAYSQKFKGRVTLTADKSTSTAYMELSSLTSEDTAVYYCTRFYSYTYWGQGTLVTVSSASTKGPSVFPLAPSSKSTSGGTAALGCLVKDYFPEPVTVSWNSGALTSGVHTFPAVLQSSGLYSLSSVVTVPSSSLGTQTYICNVNHKPSNTKVDKKVEPKSCDKTHTCPPCPAPEFEGGPSVFLFPPKPKDTLMISRTPEVTCVVVDVSHEDPEVKFNWYVDGVEVHNAKTKPREEQYNSTYRVVSVLTVLHQDWLNGKEYKCKVSNKALPAPIEKTISKAKGQPREPQVCTLPPSREEMTKNQVSLSCAVKGFYPSDIAVEWESNGQPENNYKTTPPVLDSDGSFFLVSKLTVDKSRWQQGNVFSCSVMHEALHNHYTQKSLSLSPGK light 2: DVVMTQSPLSLPVTPGEPASISCRSSQSLVHSNRNTYLHWYLQKPGQSPQLLIYKVSNRFSGVPDRFSGSGSGTDFTLKISRVEAEDVGVYYCSQNTHVPPTFGQGTKLEIKRTVAAPSVFIFPPSDEQLKSGTASVVCLLNNFYPREAKVQWKVDNALQSGNSQESVTEQDSKDSTYSLSSTLTLSKADYEKHKVYACEVTHQGLSSPVTKSFNRGEC	0.03	72	0.11	61.7	0.016	6.6	–	–	–	–
–	–	–	–	no binding (tested: 30 nM)	0.192	SDP01315 (antibody, V domains shown, Tested as a chimeric antibody (Protein A purified, detected with anti-human Fc); also called clone No. bph-003; murine-derived anti-γδTCR antibody) VH: EVKLVESGGGLVKPGGSLKLSCAASGFTFSSYAMSWVRQTPEKRLEWVASISSGGSTYYPDSVKGRFTISRDNARNILYLQMSSLRSEDTAMYYCARDGYPPFDYWGQGTTLTVSS VL: DIVMTQSQKFMSTSVGDRVSVTCKASQNVGTNVAWYQQKPGQSPKALIYSASYRYSGVPDRFTGSGSGTDFTLTISNVQSEDLAEYFCQQYNSFPLTFGSGTKLEIK	–	–	–	–	–	–	–	–	–	–
–	–	–	–	–	0.108	SDP01346 (VHH, not shown: small tags and cut ends, also called clone No. ac-025; anti-γδTCR single-domain antibody) VHH: QVQLVESGGGLVQAGGSLRLSCTVSGSTFSDFAMGWLRQAPGKEREFVAAISWTGGRTYYADSVKGRFAISRDNGENTVYLQMNSLKSEDTAIYYCAASRDCSGPGCRVHEYDYWGQGTQVTVSS	–	–	–	–	–	–	–	–	–	–
